Laboratory results published in the supplement of paper PMC9170038.

Test system: MS2 coat protein
Assay: apparent KD of MS2 coat protein; designed switch direction (-1 OFF switch, 1 ON switch): -1; higher = weaker reporter binding
Method in brief: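 The buffer was Tris-HCl pH 7.5 with KCl, MgCl2, BSA, DTT, tRNA and Tween-20. In it, SNAP-549-labelled MS2 coat protein was titrated in doubling steps from 0.7 or 1.5 nM to 3 µM over chip-bound RNA switches transcribed by stalled E. coli RNA polymerase on Illumina chips. Apparent KD is the per-design median over clusters of curve fits to normalised fluorescence.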

[1] = Eterna round: R95, input ligand: microRNA oligo, concentration not stated
[2] = input ligand: microRNA oligo, concentration not stated
[3] = Eterna round: R95, input ligand: FMN 200 uM
[4] = Eterna round: R95, input ligand: none

Sequence | apparent KD of MS2 coat protein [1] | apparent KD of MS2 coat protein (input ligand: FMN 200 uM) | apparent KD of MS2 coat protein [2] | apparent KD of MS2 coat protein (input ligand: none) | other results
GACUGCCGAGGAUAUACAUGAGGAUCACCCAUGUGCUUCAGCAUUUUUUAAUGCAUGGGUAGAAGGCGGUAGUC [LRO-Excl3-13] (puzzle: Exclusion 3) | 29.6 nM |  |  |  | 
CAUGAUUGACGAGGAUAUUGUACUACAUCACGACGAGAAGGCGUCUGUCACAUGAGGAUCACCCAUGUGAGACUGGUGAAUGAG [Ex NG1 #80] (Eterna round: R96, puzzle: Exclusion NG 1) |  | 31.6 nM | 16.7 nM | 26.2 nM | 
CCAGCGAGUGUGAGGAUAUGCUGGUCCUUGGAUCAGCAGAAGGCACAUGAGGAUCACCCAUGUGAGGACGUUGG [JL bmx4 3.31] (puzzle: Brourd's mod of Exclusion 4) | 23.9 nM |  |  |  | 
UUUUAACAUGAGGAUCACCCAUGUGAGGAUAUCGAAAUUUAUAUUAAUAUUAAUAUAACGAGAAGGCACAUUUU [JMF 23] (puzzle: Exclusion 1) | 47.2 nM |  |  |  | 
CAGUACUGAGGAUAUACAUGAGGAUCACCCAUGUGUUCCAGCUAGGAAACUAGCAAAGGUAGAAGGCAGUACUG [salish99_ex3_r3_065] (Eterna round: R96, puzzle: Exclusion 3) |  |  | 23.2 nM |  | 
UUUAAUUUUUUUUUUUUACAAGCUUUUUGCUCGUCUUAUACAUGAGGAUCACCCAUGUGGGUAGAAAGUAAAUUAUC [JMF 46] (puzzle: Sensor v3, turn-off variant 2) | 43.6 nM |  |  |  | apparent KD of MS2 coat protein [3]: 13.7 nM; apparent KD of MS2 coat protein [4]: 15.4 nM
UCCACACAUGAGGAUCACCCAUGUGAGGAUAUCAUGCUUCGUAGUAAACUACGAAGUGUGAGAAGGCACAUGGC [Omei Ex1 D13] (Eterna round: R97, puzzle: Exclusion 1) |  | 94.7 nM |  | 24.9 nM | 
AGCUAGUCAGGAUAUACGAACAUGUCAAAAGACGUGAAGGGACAUGAGGAUCACCCAUGUAGAAGGGACUAGCC [salish99-Ex2-17] (Eterna round: R96, puzzle: Exclusion 2) |  |  | 23.8 nM |  | 
UUUGCAAGCUAAAGAUCCCACAUGAGGAUCACCCAUGUUGCUGCCGUGAGGUAGCAUUUAACUUUUGCUCGUCUUAU [JL TOV1 3.49] (Eterna round: R97, puzzle: Sensor, turn-off variant 1) |  | 282 nM |  | 300 nM | 
CCUAUGUGAGGAUAUCACUGGUCUGCUCACUAGAUGAUCAGUGAGAAGGCACAUGAGGAUCACCCAUGUCAGUG [Exclusion 4 - Mod Brourd Ex 4-3 - 53] (puzzle: Exclusion 4) | 92.9 nM |  |  |  | 
AAGAUGCGGGUAGGAUAUGGAGAGAAAGAAAGACCAGAAGGAUUGGUCACACAACAUGAGGAUCACCCAUGUGUGUGUUGCGAA [EX ng 1 6.1] (Eterna round: R96, puzzle: Exclusion NG 1) |  |  | 9.22 nM |  | 
GUCCGGCAUGUAGGAUAUGGAUCCGAUUAGGAUUUAGAAGGACAUGAGGAUCACCCAUGUACAUUUAAUUAGUCAUUACCGGAC [EXclNG1-LROPPY03] (Eterna round: R96, puzzle: Exclusion NG 1) |  | 14.6 nM | 9.47 nM | 14.9 nM | 
GUAGGGUCAGGAUAUACGGGCGGGAGGAUGUAUUGUAGUUGGUAGAAGGGACAUGAGGAUCACCCAUGUGAGAA [JR_Exclu4_Sub054] (puzzle: Exclusion 4) | 31 nM |  |  |  | 
AUGGCGUUAGGAUAUACUAUGGGCCUGGACAGUGCACCUCCACAUGAGGAUCACCCAUGUAGAAGGAACUCGAG [Eternabot (L2) Solution 99] (Eterna round: R97, puzzle: Exclusion 2) |  | 26.9 nM |  | 20.8 nM | 
CGUGCGUAUGUGAGGAUAUGCUGGUCCUUGGCUCGGCAGAAGGCACAUGAGGAUCACCCAUGUGGUGUCGUACC [salish99_Bmod_ex4_061] (puzzle: Brourd's mod of Exclusion 4) | 18.9 nM |  |  |  | 
UGUCUUCAUAUCACAUGAGGAUCACCCAUGUUAUUCAUCUCGUAGGAUAUCGAGGUUUAUUAUUUCGAGAAGGACGUAUUGUUU [JR_ExcNG3_Sub076] (Eterna round: R96, puzzle: Exclusion NG 3) |  | 199 nM | 112 nM | 148 nM | 
GGAUCGAGUGUGAGGAUAUGCUGGUCCUUGGAUCAGCAGAAGGCACAUGAGGAUCACCCAUGUGAAAACGGUCC [Mat - Exclusion 4 - JL Mod - D70] (puzzle: Brourd's mod of Exclusion 4) | 22.7 nM |  |  |  | 
CUGUGCUGACGGAGAUCCAACAUGAGGAUCACCCAUGUCUCAAAAGCUUUUUGCUCGUCUUAUCCUCCUCAGUACAC [Mat - Sensor, turn-off var - Eli Mod - D56] (Eterna round: R97, puzzle: Sensor, turn-off variant 1) |  | 17.7 nM |  | 17.2 nM | 
AAAACACAUGAGGAUCACCCAUGUGAGGAUAUGCUAUGGAAAAUAAAAAUAAAACAUAGCAGAAGGCACAAAGG [Denovo 18] (Eterna round: R96, puzzle: Exclusion 1) |  |  | 54 nM |  | 
ACAAGAAUUUUGCUCGUAAAGUAGAAACGCGAGAGCGAGACAUGAGGAUCACCCAUGUAAAGGCAGUAGGUGGAGAU [JR_SV3TOV2_Sub027] (puzzle: Sensor v3, turn-off variant 2) | 50.9 nM |  |  |  | apparent KD of MS2 coat protein [3]: 49.3 nM; apparent KD of MS2 coat protein [4]: 46.1 nM
GGGUAGUGAGGAUAUCGUUGUUAGGAGGAGUAGGUAGGAGGCGAGAAGGCACAUGAGGAUCACCCAUGUAUGAA [JR_Exclu4_Sub066] (puzzle: Exclusion 4) | 23.5 nM |  |  |  | 
AGUACUAACACGAGAGUGUUAGUACAAUAAGCUUGUGUUACAUGAGGAUCACCCAUGUCCUCAUAAGCUCGUCUUAA [Mat - Sensor v3 - Turn-off var 2 - D58] (puzzle: Sensor v3, turn-off variant 2) | 727 nM |  |  |  | apparent KD of MS2 coat protein [3]: 41.3 nM; apparent KD of MS2 coat protein [4]: 42.5 nM
GCACGGAGUGUAGGAUAUCUGUGCGAUUAGCUCAGAGAAGGACAUGAGGAUCACCCAUGUGUGUUCCAAUAAUAAAAUCCGUGC [Eli exng1 - 063] (Eterna round: R96, puzzle: Exclusion NG 1) |  | 1500 nM | 270 nM | 329 nM | 
GGGCCGGCCGGAGGAUAUGCGGCCCGGCCGGCCGGUGGGCCGGCCGGGACAUGAGGAUCACCCAUGUAGAAGGCCGGCCGGCCC [low energy, MS2 in another position, A 14%] (Eterna round: R96, puzzle: Exclusion NG 2) |  | 18.8 nM | 13.7 nM | 15.9 nM | 
GUUAGUUAAGGAUAUACAGGGAGCUGCGGCGUCUCGCCGCAACAUGAGGAUCACCCAUGUAGAAGGUGGCCAUU [JL ViennaUCT Enbibi mod 3] (puzzle: Exclusion 2) | 471 nM |  |  |  | 
CCGGAACAUGAGGAUCACCCAUGUGAGGAUAUCGUACGUUCGUCGAAAGACGAUCGUACGAGAAGGCACGCCGG [Eli x1 4.33] (Eterna round: R97, puzzle: Exclusion 1) |  | 17.2 nM |  | 14.6 nM | 
UGCGGAAGAGGAUAUACAUUGAAUUUGAUUCAUGUAAAACUACAUGAGGAUCACCCAUGUAGAAGGCUUUCGCU [Mat - Exclusion 2 - JL Mod - D66] (Eterna round: R97, puzzle: Exclusion 2) |  | 33.7 nM |  | 17.7 nM | 
